The results in this text go back to patent publication US7611713.

For this assay, the target named is HLA-B*0701 (as printed in the head of Table XXII) (human). Put plainly: competitive inhibition of radiolabeled standard peptide binding to purified HLA.

Substance “HBV ENV 313 analog with F at position 1 (peptide; other documents disagree on this pair)” showed an IC50 of 24 nM.

By IC50 is commonly meant the point on the concentration scale where inhibition reaches its midpoint.
